Source: patent US20160032017A1 (ACADEMIA SINICA, published 2016)

Experiments:
[1] = target: T1, synthetic peptide P(29→46), AAGGSVPHPRCHCGAGRA (human); test: ELISA on synthetic CεmX peptides
T1 construct: Residues are counted on the CεmX domain
T1 peptide: AAGGSVPHPRCHCGAGRA

[2] = target: T2, synthetic peptide P(33→46), SVPHPRCHCGAGRA (human); test: ELISA on synthetic CεmX peptides
T2 construct: Residues are counted on the CεmX domain
T2 peptide: SVPHPRCHCGAGRA

[3] = target: T3, synthetic peptide P(27→40) (human); test: ELISA on synthetic CεmX peptides
T3 construct: Residues are counted on the CεmX domain; also called Peptide M1′-8
T3 peptide: PRAAGGSVPHPRCH

[4] = target: T4, synthetic 22 amino acid peptide P(25→46), GLPRAAGGSVPHPRCHCGAGRA (human); test: ELISA, plate coated with P(25→46)
T4 construct: Residues 25-46 are counted on the CεmX domain; The peptide was coated on the ELISA plates without a carrier; the OVA conjugate was used only for immunization; also called target antigen peptide
T4 peptide: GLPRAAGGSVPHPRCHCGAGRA
Protocol: To screen hybridomas for antibody secretion and to map the epitopes of secreted antibodies, the wells of microtiter plates were coated by incubating them overnight at 4° C. with 10 μg/mL of P(25→46) in 0.1 M carbonate buffer, pH 9.6. The wells were first blocked for 1 hour with 1% bovine serum albumin (BSA) in phosphate buffered saline (PBS), pH7.3, and then incubated for 1 hour at 37° C. at various dilutions with antisera or control antibodies. The wells were then washed and the ligand-bound antibodies detected by horse radish peroxidase (HRP)-conjugated goat anti-mouse IgG, Fcγ fragment specific (Jackson ImmunoResearch), or anti-human IgG, Fcγ fragment specific (Jackson ImmunoResearch) at a dilution of 1:10,000. To detect the ligand-bound antibodies, the wells were incubated for 1 hour at 37° C., followed by incubation with TMB (3,3′,5,5′-tetramethylbenzidine) substrate (Clinical Scientific Products).
One of the monoclonal antibodies specific for an epitope within the P(25→46), herein designated mAb 23B11, was subjected to epitope mapping studies. Several peptides representing parts of the consecutive P(25→46) were synthesized, including P(29→46) (SEQ ID NO:1); P(31→46) (SEQ ID NO:3), P(33→46) (SEQ ID NO:4), P(27→40) (SEQ ID NO:5), and […] (SEQ ID NO:6), as shown in FIG. 1A. […] The reactivity of mAb 23B11 with the synthesized peptides were analyzed by ELISA. […]

binding result [1]: binds | binding result [2]: binds | binding result [3]: binds | binding result [4]: binds
B1: monoclonal antibody mAb 23B11 (antibody, V domains shown)
VH: EVQLQQSGAELMKPGASVKISCKASGYTFSSYWIEWVYQRPGHGLEWIGEILPGSGSSNYNEKFEGKATFTADTSSNTAYMHLSSLTSEDSAVYYCARWDYYGGRGFDYWGQGTTLTAAA
VL: DIVMTQAAPSVPVTPGESVSISCRSSKSLLHSNGNIYLHWFLQRPGQSPQLLIYRMSNVASGVPDRFSGSGSGTVFTLRISRVEAEDVGVYYCMQNLEYPLTFGAGTKLELK
notes: Murine hybridoma antibody from BALB/c mice, detected with anti-mouse IgG
